# Target: BswR (Bacterial SWarming Regulator), PA2780 (Pseudomonas aeruginosa)
# Test: SEC; gel filtration profile during protein purification; HiLoad Superdex 75 26/60; 20 mM Tris pH 7.5, 200 mM NaCl, 5 mM beta-ME
substance,measurement,value
"BswR (Bacterial SWarming Regulator), PA2780 (natural protein)",stoichiometry N,2
